This test deals with CD47-His (UniProt Q08722 19-139). The experiment in a line: SPR (Biacore). For orientation: SPR reads the build-up and loss of mass on a sensor chip optically.
Sequence of CD47-His (Q08722 19-139): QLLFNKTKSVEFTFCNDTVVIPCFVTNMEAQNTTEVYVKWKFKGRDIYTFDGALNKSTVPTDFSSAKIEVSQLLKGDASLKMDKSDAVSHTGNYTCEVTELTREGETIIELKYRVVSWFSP

B1: CD20-4GL-SIRPα (bispecific antibody)
heavy: not shown
light: QIVLSQSPAILSASPGEKVTMTCRASSSVSYIHWFQQKPGSSPKPWIYATSNLASGVPVRFSGSGSGTSYSLTISRVEAEDAATYYCQQWTSNPPTFGGGTKLEIKRTVAAPSVFIFPPSDEQLKSGTASVVCLLNNFYPREAKVQWKVDNALQSGNSQESVTEQDSKDSTYSLSSTLTLSKADYEKHKVYACEVTHQGLSSPVTKSFNRGEC
B1 yielded a Kd of 15.9 nM.

B2: SIRPα-CD20 (bispecific antibody)
heavy: not shown
light: B1 light
B2 registered a dissociation constant Kd of 6.39 nM.

B3: CD20-2GL-SIRPα (bispecific antibody)
heavy: not shown
light: B1 light
Molecule B3 returned a Kd of 21.4 nM.

By Kd is commonly meant the concentration at which binding is half-saturated. Low readings indicate a tighter complex, high ones a looser complex.

Values taken from patent US20180355053A1 (published 2018).
